Data from patent US20250325675A1, “APTAMER, CONJUGATE, COMPOSITION, METHOD FOR PREPARING SAME, AND USE THEREOF” (priority 2022, published 2025).
Non-standard residues stand in square brackets, D forms with d. Residues, ends and D or L forms follow the SMILES beside them. *: point of attachment. Dolaproine = CO[C@@H]([C@@H]1CCCN1)[C@@H](C)C(=O)O; Dil = CC[C@H](C)[C@H](NC)[C@@H](CC(=O)O)OC; X1 = C[C@@H](N*)[C@@H](O)c1ccccc1; NMeV = CN[C@H](C(=O)O)C(C)C

Assays:
[1] = tested on: U118MG glioma subcutaneous tumor; assay: In vivo anti-tumor activity in U118MG subcutaneous tumor mice (Experimental Example 11); set-up: species or system NOD-SCID mice
Procedure: The mice in this experiment were purchased from SPF Co., LTD: the germline was NOD-SCID, the grade was SPF, male, 6-8 weeks old; U118MG neuroglioma cells were purchased from Jennio.
The conjugate AP2 above was formulated into a 1.94 mg/mL solution with PBS. Conjugate 20 was respectively formulated into 0.625 mg/mL, 1.25 mg/mL and 2.06 mg/mL solutions with PBS (all calculated based on the amount of aptamer). MMAE (purchased from Shanghai Macklin Inc., Lot No. C12886583) was dissolved into a 0.038 mg/mL solution with a mixed solution of 10% DMSO+90% PBS (volume ratio).
The day of inoculation is designated as D1, and administration is performed once on D8, D12, D16 and D20.
36 mice were randomly divided into the following 6 groups (6 mice per group):
For blank control group 1, PBS was administered by tail vein injection with a single administration volume of 10 μL/g. […]
The long diameters and short diameters of the tumors were measured in vitro. The tumor volume was calculated according to the equation ½ (long diameter×short diameter^2). Prior to the first administration on D8, the tumor volumes in each group were measured and the average tumor volumes were recorded; the tumor volumes in each group were measured and recorded from D16 (twice a week).

[2] = tested on: U118MG subcutaneous tumor; assay: Long-interval administration in U118MG subcutaneous tumor model mice (Experimental Example 23); type: in vivo; details: 0.1 or 0.3 mg/kg subcutaneous on D8, D11, D15, D29, D32, D36
Procedure: According to the method of Experimental Example 4, 42 mice inoculated with U118MG subcutaneous tumor were obtained, and were further fed after injection.
MMAE was dissolved into solutions with concentrations of 0.03 mg/mL and 0.01 mg/mL with 10% DMSO+90% serum-free DMEM medium (volume ratio). Conjugate 39 was dissolved into solutions with concentrations of 0.5 mg/mL and 0.165 mg/mL (based on aptamer). Comparative conjugate 44 was dissolved into solutions with concentrations of 0.5 mg/mL and 0.165 mg/mL (based on aptamer).
7 days after inoculation of U118MG cells, all mice were randomly divided into seven groups (6 mice per group), and each group of mice was administered. […] The mice were weighed before administration and the administration volume was calculated according to weight. […]
The tumor volumes were measured on D1, D9, D16, D19, D21, D24, D26, D29, D32, D36, D39, D43, D47, D53, D57, D60, D64, D67, D71, D74, D78, D81, D84, D88, D92, D95, and D99, wherein the blank control group was measured on D53, and test groups 7a, 7b and control group 7c were measured on D60, and then the experiment was terminated.
The long diameters and short diameters of the tumors were measured in vitro. The tumor volume was calculated according to the equation ½ (long diameter×short diameter^2). After the experiment was terminated, the tumor tissues were taken and weighed, and the average value was calculated.

[3] = tested on: U118MG glioma subcutaneous tumor; assay: In vivo distribution in U118MG cell subcutaneous tumor model mice (Experimental Example 4); set-up: species or system NOD-SCID mice; details: mouse, in vivo
Procedure: U118MG human glioma cells in the logarithmic growth phase were selected and digested (0.25% pancreatic enzyme).
The mice were further fed for 20 days after injection.
The mice inoculated with U118MG above were randomly divided into 3 groups (4 mice per group). For the 4 mice per group, the administration volume was calculated according to 10 μL/g body weight, and AP1, AP2 and comparative AP11 were respectively administered to different groups of mice by tail vein injection and designated as test group 4A1, test group 4A2 and control group 4A3. Thus, the administration dosage of each mouse was 3 mg/kg (based on aptamer). Another mouse inoculated with U118MG above was administered with 1×DMEM medium by tail vein injection (the administration volume was 10 μL/g body weight), and designated as blank control group 4Y.

[4] = tested on: U118MG subcutaneous tumor; assay: In vivo distribution of conjugates with different modifications in U118MG subcutaneous tumor model mice (Experimental Example 6); set-up: species or system NOD-SCID mice; details: 3 mg/kg tail vein
Procedure: U118MG subcutaneous tumor model mice were prepared according to the method described in experimental Example 4.
9 mice were divided into 3 groups (3 mice per group). AP2, AP3 and comparative AP12 solutions were respectively administered to each mouse of each group by tail vein injection. […] The three groups of mice were respectively designated as test group 6A, test group 6B and test group 6C. […] On Day 10 after administration, one mouse of blank control group 6Y and one mouse of test group 6A was respectively euthanized and tumor tissues were taken for fluorescence imaging, and the results are shown in FIG. 5H. In FIGS. 5A-5H, Blank represents blank control group 6Y.

[5] = tested on: U118MG in situ brain glioma; details: mouse, in vivo, 3 mg/kg
Procedure: U118MG human glioma cells in the logarithmic growth phase cultured as described in experimental Example 4 were selected and digested with 0.25% pancreatic enzyme. The cells were collected, the supernatant was aspirated, and then the cells were resuspended in DMEM medium supplemented with 10% FBS to be formulated into a cell culture solution with a cell density of 4×10^7 cells/mL.
Experimental animals were 16 NOD-SCID mice (male, 12 weeks old, purchased from SPF (Beijing) Biotechnology Co., LTD.). […]
AP1, AP2 and comparative AP11 were respectively dissolved into conjugate solutions with a concentration of 0.3 mg/mL (based on aptamer) with 1×DMEM medium. […] The administration dosage for all animals was calculated according to body weight, the administration volume was all 10 μL/g, and the administration dosage was 3 mg/kg per animal (based on the amount of aptamer). […]
At 24 h after administration, one mouse in each group was respectively euthanized and brain tissue was taken, and the remaining mice were euthanized at 48 h after administration and brain tissues were taken. The brain tissues of mice were taken for fluorescence imaging in IVIS Lumina Series III.

CC[C@H](C)[C@@H]([C@@H](CC(=O)N1CCC[C@H]1[C@H](OC)[C@@H](C)C(=O)N[C@H](C)[C@@H](O)c1ccccc1)OC)N(C)C(=O)[C@@H](NC(=O)[C@@H](NC)C(C)C)C(C)C [MMAE, Monomethylauristatin E, reference compound] (H-[NMeV]V[Dil][Dolaproine]-X1)
growth rate of tumor volume ([1]; control group 3: 0.3 mg/kg tail vein on D8, D12, D16, D20): growth rate of the tumor volume was reduced | growth rate of tumor volume [2]: growth rate of tumor volume was reduced

CY5-CmUmGmGmAmGmUmUmCmAmGmAmCmGmUmGmUmUmGmCmUmCmUmUmCmCmGmAmUmCmUmCm [AP2]
fluorescence signal in mice / at site of tumor inoculation [3]: strong fluorescence signal at the sites of tumor inoculation | fluorescence intensity in vivo / tumor ([4]; 4 h to 24 h after administration): still show high fluorescence intensity | fluorescent signal in vivo / tumor ([4]; 48 h to Day 10 after administration): still show strong fluorescent signal | tumor volume over time ([1]; control group 2: 15.5 mg/kg tail vein on D8, D12, D16, D20): increased rapidly | fluorescence signal at brain glioma [5]: obvious fluorescence signals at both 24 and 48 h
